Measured values: paper PMC6422423, “Constitutively active BRS3 is a genuinely orphan GPCR in placental mammals” (PLoS Biology, 2019)
Substitutions are numbered along the chain they refer to. Names and notes keep the numbering of the source.

Experiments:
mouse BRS3 (mBRS3) = test: Luciferase reporter, constitutive activity (WT, mutants, truncated; with/without inhibitor); format: cell-based; parameters: key to constitutive luciferase activity: fold over pcDNA-transfected blank control (blank = 1); conditions: for luciferase, CRE / luciferase, NFAT / luciferase, SRE / luciferase, SRF: Blank = 1; for constitutive luciferase activity: no ligand; for CRE luciferase reporter activity relative to Blank (Blank = 1) / NFAT luciferase reporter activity relative to Blank (Blank = 1) / SRF luciferase reporter activity relative to Blank (Blank = 1): constitutive, full-length mBRS3 and truncated N-mBRS3
Experimental: (§1) To detect constitutive activity of BRS3, HEK293 cells were seeded in 24-well plates and cotransfected with the CRE/NFAT-RE/SRF-RE/SRE luciferase reporter plasmids (50 ng), the BRS3 from different species, or BRS3 mutants with different doses (10 ng/50 ng/150 ng); after 24 h, cells were further incubated in serum-free media for another 12 h before luciferase assay. As for peptide supplementation treatment, HEK293 cells were cotransfected with the CRE/NFAT-RE/SRF-RE/SRE luciferase reporter plasmids (50 ng) and various genes (300 ng) of the bombesin receptor family. […] Luciferase activities were determined using luciferase assay kits (Beyotime, Shanghai, China) and normalized to β-galactosidase activity. All experiments were performed at least three times in triplicates. HEK293 cells transfected with pcDNA were used as a blank control in all luciferase experiments, and the fold was calculated compared to blank control.

human BRS3 (hBRS3) = test: as above; format: cell-based; conditions: for luciferase, CRE / luciferase, NFAT / luciferase, SRE / luciferase, SRF: Blank = 1; for CRE luciferase reporter activity relative to Blank (Blank = 1) / NFAT luciferase reporter activity relative to Blank (Blank = 1) / SRF luciferase reporter activity relative to Blank (Blank = 1): constitutive
Experimental: as §1

[1] = hBRS3 WT and mutant 3, replicate 1
[2] = hBRS3 WT and mutant 3, replicate 2
[3] = hBRS3 WT and mutant 3, third line, unlabelled, equals mean of the two replicates
[4] = full-length hBRS3 and truncated N-hBRS3, replicate 1
[5] = full-length hBRS3 and truncated N-hBRS3, replicate 2
[6] = full-length hBRS3 and truncated N-hBRS3, third line, unlabelled, equals mean of the two replicates

B1: mouse (protein, UniProt O54798 1-399, looked up)
Bombesin receptor subtype-3: MSQRQSQSPNQTLISITNDTETSSSVVSNDTTHKGWTGDNSPGIEALCAIYITYAGIISVGILGNAILIKVFFKTKSMQTVPNIFITSLAFGDLLLLLTCVPVDATHYLAEGWLFGKVGCKVLSFIRLTSVGVSVFTLTILSADRYKAVVKPLERQPPNAILKTCAKAGGIWIVSMIFALPEAIFSNVYTFQDPNRNVTFESCNSYPISERLLQEIHSLLCFLVFYIIPLSIISVYYSLIARTLYKSTLNIPTEEQSHARKQIESRKRIAKTVLVLVALFALCWLPNHLLYLYHSFTYESYANHSDVPFVIIIFSRVLAFSNSCVNPFALYWLSKTFQQHFKAQLCCLKAEQPEPPLGDIPLNNLTVMGRVPATGSAHVSEISVTLFSGSSAKKGEDKV
luciferase, CRE (mouse BRS3 (mBRS3); value 1 of 3): 19.4537 | luciferase, NFAT (mouse BRS3 (mBRS3); value 1 of 3): 19.0254 | luciferase, SRE (mouse BRS3 (mBRS3); value 1 of 3): 1.5624 | luciferase, SRF (mouse BRS3 (mBRS3); value 1 of 3): 20.3125 | luciferase, CRE (mouse BRS3 (mBRS3); value 2 of 3): 18.5759 | luciferase, NFAT (mouse BRS3 (mBRS3); value 2 of 3): 18.2536 | luciferase, SRE (mouse BRS3 (mBRS3); value 2 of 3): 1.4021 | luciferase, SRF (mouse BRS3 (mBRS3); value 2 of 3): 21.0453 | luciferase, NFAT (mouse BRS3 (mBRS3); value 3 of 3): 18.6395 | luciferase, SRE (mouse BRS3 (mBRS3); value 3 of 3): 1.4823 | luciferase, SRF (mouse BRS3 (mBRS3); value 3 of 3): 20.6789

B2: mBRS3-R268A (protein, UniProt O54798 1-399, looked up, variant R268A)
Bombesin receptor subtype-3: B1 Bombesin receptor subtype-3 with R268A
constitutive luciferase activity (mouse BRS3 (mBRS3); SRF, mean): 19.8563 | constitutive luciferase activity (mouse BRS3 (mBRS3); SRF, replicate 1): 19.1647 | constitutive luciferase activity (mouse BRS3 (mBRS3); SRF, replicate 2): 20.5479

B3: mBRS3-F337A (protein, UniProt O54798 1-399, looked up, variant F337A)
Bombesin receptor subtype-3: B1 Bombesin receptor subtype-3 with F337A
constitutive luciferase activity (mouse BRS3 (mBRS3); SRF, mean): 15.0321 | constitutive luciferase activity (mouse BRS3 (mBRS3); SRF, replicate 1): 15.1183 | constitutive luciferase activity (mouse BRS3 (mBRS3); SRF, replicate 2): 14.946

B4: mBRS3-P372A (protein, UniProt O54798 1-399, looked up, variant P372A)
Bombesin receptor subtype-3: B1 Bombesin receptor subtype-3 with P372A
constitutive luciferase activity (mouse BRS3 (mBRS3); CRE, mean): 17.158 | constitutive luciferase activity (mouse BRS3 (mBRS3); CRE, replicate 1): 17.4198 | constitutive luciferase activity (mouse BRS3 (mBRS3); CRE, replicate 2): 16.8962

B5: mBRS3-Q339A (protein, UniProt O54798 1-399, looked up, variant Q339A)
Bombesin receptor subtype-3: B1 Bombesin receptor subtype-3 with Q339A
constitutive luciferase activity (mouse BRS3 (mBRS3); SRF, mean): 15.5479 | constitutive luciferase activity (mouse BRS3 (mBRS3); SRF, replicate 1): 16.2185 | constitutive luciferase activity (mouse BRS3 (mBRS3); SRF, replicate 2): 14.8773

B6: mBRS3 (protein)
chain: B1 Bombesin receptor subtype-3
modifications: left off: V5 (from the vector pcDNA3.1-V5-His), end not stated, state not stated | His tag (from the vector pcDNA3.1-V5-His), end not stated, state not stated
CRE luciferase reporter activity relative to Blank (Blank = 1) (mouse BRS3 (mBRS3); CRE, replicate 1): 16.331 | CRE luciferase reporter activity relative to Blank (Blank = 1) (mouse BRS3 (mBRS3); CRE, replicate 2): 17.4509 | CRE luciferase reporter activity relative to Blank (Blank = 1) (mouse BRS3 (mBRS3); CRE, third line, unlabelled, equals mean of the two replicates): 16.8909 | constitutive luciferase activity (mouse BRS3 (mBRS3); CRE, mean): 17.9436 | constitutive luciferase activity (mouse BRS3 (mBRS3); CRE, replicate 1): 17.8927 | constitutive luciferase activity (mouse BRS3 (mBRS3); CRE, replicate 2): 17.9945 | NFAT luciferase reporter activity relative to Blank (Blank = 1) (mouse BRS3 (mBRS3); replicate 1): 16.9181 | NFAT luciferase reporter activity relative to Blank (Blank = 1) (mouse BRS3 (mBRS3); replicate 2): 16.5656 | NFAT luciferase reporter activity relative to Blank (Blank = 1) (mouse BRS3 (mBRS3); third line, unlabelled, equals mean of the two replicates): 16.7418 | SRF luciferase reporter activity relative to Blank (Blank = 1) (mouse BRS3 (mBRS3); SRF, replicate 1): 18.8375 | SRF luciferase reporter activity relative to Blank (Blank = 1) (mouse BRS3 (mBRS3); SRF, replicate 2): 17.9845 | SRF luciferase reporter activity relative to Blank (Blank = 1) (mouse BRS3 (mBRS3); SRF, third line, unlabelled, equals mean of the two replicates): 18.411 | constitutive luciferase activity (mouse BRS3 (mBRS3); SRF, mean): 20.9426 | constitutive luciferase activity (mouse BRS3 (mBRS3); SRF, replicate 1): 19.9659 | constitutive luciferase activity (mouse BRS3 (mBRS3); SRF, replicate 2): 21.9194

B7: mBRS3-P158A (protein, UniProt O54798 1-399, looked up, variant P158A)
Bombesin receptor subtype-3: B1 Bombesin receptor subtype-3 with P158A
constitutive luciferase activity (mouse BRS3 (mBRS3); CRE, mean): 15.9368 | constitutive luciferase activity (mouse BRS3 (mBRS3); CRE, replicate 1): 15.6335 | constitutive luciferase activity (mouse BRS3 (mBRS3); CRE, replicate 2): 16.2401

B8: mBRS3-A270I (protein, UniProt O54798 1-399, looked up, variant A270I)
Bombesin receptor subtype-3: B1 Bombesin receptor subtype-3 with A270I
constitutive luciferase activity (mouse BRS3 (mBRS3); SRF, mean): 14.9649 | constitutive luciferase activity (mouse BRS3 (mBRS3); SRF, replicate 1): 15.7177 | constitutive luciferase activity (mouse BRS3 (mBRS3); SRF, replicate 2): 14.2121

B9: mBRS3-R370A (protein, UniProt O54798 1-399, looked up, variant R370A)
Bombesin receptor subtype-3: B1 Bombesin receptor subtype-3 with R370A
constitutive luciferase activity (mouse BRS3 (mBRS3); CRE, mean): 17.8056 | constitutive luciferase activity (mouse BRS3 (mBRS3); CRE, replicate 1): 17.9268 | constitutive luciferase activity (mouse BRS3 (mBRS3); CRE, replicate 2): 17.6843

B10: mBRS3-Q156A (protein, UniProt O54798 1-399, looked up, variant Q156A)
Bombesin receptor subtype-3: B1 Bombesin receptor subtype-3 with Q156A
constitutive luciferase activity (mouse BRS3 (mBRS3); CRE, mean): 16.9342 | constitutive luciferase activity (mouse BRS3 (mBRS3); CRE, replicate 1): 16.8106 | constitutive luciferase activity (mouse BRS3 (mBRS3); CRE, replicate 2): 17.0578

B11: human (protein, UniProt P32247 1-399, looked up)
Bombesin receptor subtype-3: MAQRQPHSPNQTLISITNDTESSSSVVSNDNTNKGWSGDNSPGIEALCAIYITYAVIISVGILGNAILIKVFFKTKSMQTVPNIFITSLAFGDLLLLLTCVPVDATHYLAEGWLFGRIGCKVLSFIRLTSVGVSVFTLTILSADRYKAVVKPLERQPSNAILKTCVKAGCVWIVSMIFALPEAIFSNVYTFRDPNKNMTFESCTSYPVSKKLLQEIHSLLCFLVFYIIPLSIISVYYSLIARTLYKSTLNIPTEEQSHARKQIESRKRIARTVLVLVALFALCWLPNHLLYLYHSFTSQTYVDPSAMHFIFTIFSRVLAFSNSCVNPFALYWLSKSFQKHFKAQLFCCKAERPEPPVADTSLTTLAVMGTVPGTGSIQMSEISVTSFTGCSVKQAEDRF
luciferase, CRE (human BRS3 (hBRS3); value 1 of 3): 4.2545 | luciferase, NFAT (human BRS3 (hBRS3); value 1 of 3): 6.3808 | luciferase, SRE (human BRS3 (hBRS3); value 1 of 3): 1.2780 | luciferase, SRF (human BRS3 (hBRS3); value 1 of 3): 4.0202 | luciferase, CRE (human BRS3 (hBRS3); value 2 of 3): 3.9246 | luciferase, NFAT (human BRS3 (hBRS3); value 2 of 3): 6.2351 | luciferase, SRE (human BRS3 (hBRS3); value 2 of 3): 1.0242 | luciferase, SRF (human BRS3 (hBRS3); value 2 of 3): 3.9201 | luciferase, CRE (human BRS3 (hBRS3); value 3 of 3): 4.0896 | luciferase, NFAT (human BRS3 (hBRS3); value 3 of 3): 6.5264 | luciferase, SRE (human BRS3 (hBRS3); value 3 of 3): 1.5319 | luciferase, SRF (human BRS3 (hBRS3); value 3 of 3): 4.1204

B12: hBRS3-WT (protein, UniProt P32247 1-399, looked up)
Bombesin receptor subtype-3: B11 Bombesin receptor subtype-3
CRE luciferase reporter activity relative to Blank (Blank = 1) (human BRS3 (hBRS3); [1]): 4.2545 | CRE luciferase reporter activity relative to Blank (Blank = 1) (human BRS3 (hBRS3); [2]): 3.9246 | CRE luciferase reporter activity relative to Blank (Blank = 1) (human BRS3 (hBRS3); [3]): 4.0896 | NFAT luciferase reporter activity relative to Blank (Blank = 1) (human BRS3 (hBRS3); [1]): 6.5264 | NFAT luciferase reporter activity relative to Blank (Blank = 1) (human BRS3 (hBRS3); [2]): 6.2351 | NFAT luciferase reporter activity relative to Blank (Blank = 1) (human BRS3 (hBRS3); [3]): 6.3808 | SRF luciferase reporter activity relative to Blank (Blank = 1) (human BRS3 (hBRS3); [1]): 4.1204 | SRF luciferase reporter activity relative to Blank (Blank = 1) (human BRS3 (hBRS3); [2]): 3.9201 | SRF luciferase reporter activity relative to Blank (Blank = 1) (human BRS3 (hBRS3); [3]): 4.0202

B13: hBRS3 (protein)
chain: B11 Bombesin receptor subtype-3
modifications: left off: V5 (from the vector pcDNA3.1-V5-His), end not stated, state not stated | His tag (from the vector pcDNA3.1-V5-His), end not stated, state not stated
CRE luciferase reporter activity relative to Blank (Blank = 1) (human BRS3 (hBRS3); [4]): 3.5016 | CRE luciferase reporter activity relative to Blank (Blank = 1) (human BRS3 (hBRS3); [5]): 4.7486 | CRE luciferase reporter activity relative to Blank (Blank = 1) (human BRS3 (hBRS3); [6]): 4.1251 | NFAT luciferase reporter activity relative to Blank (Blank = 1) (human BRS3 (hBRS3); [4]): 5.5943 | NFAT luciferase reporter activity relative to Blank (Blank = 1) (human BRS3 (hBRS3); [5]): 5.6987 | NFAT luciferase reporter activity relative to Blank (Blank = 1) (human BRS3 (hBRS3); [6]): 5.6465 | SRF luciferase reporter activity relative to Blank (Blank = 1) (human BRS3 (hBRS3); [4]): 3.202 | SRF luciferase reporter activity relative to Blank (Blank = 1) (human BRS3 (hBRS3); [5]): 3.9147 | SRF luciferase reporter activity relative to Blank (Blank = 1) (human BRS3 (hBRS3); [6]): 3.5584
